B2: UCP (endogenous E2EPF ubiquitin carrier protein) (enzyme, human, UniProt Q16763 1-222, looked up)
chain: MNSNVENLPPHIIRLVYKEVTTLTADPPDGIKVFPNEEDLTDLQVTIEGPEGTPYAGGLFRMKLLLGKDFPASPPKGYFLTKIFHPNVGANGEICVNVLKRDWTAELGIRHVLLTIKCLLIHPNPESALNEEAGRLLLENYEEYAARARLLTEIHGGAGGPSGRAEAGRALASGTEASSTDPGAPGGPGGAEGPMAKKHAGERDKKLAAKKKTDKKRALRRL
notes: Endogenous protein in cell lysates; also called E2EPF-UCP; endogenous UCP

In assay [1] the target is B2. The assay is described as follows: summary sentence citing FIG. 7 and FIG. 8b. How it is done:
(§1) CAKI (kidney cancer cell line) or HepG2 (liver cancer cell line) cells were collected from 10 100 mm culture dishes and frozen at −70° C. The frozen cells were lysed in 0.5 ml of a cell lysis buffer (50 mM Tris, 0.5 mM EDTA, 50 mM KCl, 10% glycerol, 1 mM DTT, 0.5% NP-40, 0.5 mM PMSF). The cell lysate was loaded in 10 ml of 5%-20% sucrose density gradient solution, followed by ultra-centrifugation at 35,000 rpm for 16 hours.

Assay [2] addresses T1, VHL E3 ligase complex (comprising VHL, Elongin B, Elongin C and Rbx1) (human, UniProt P40337 1-213; Q15370 1-118; Q15369 1-112; P62877 1-108).
T1 construct: also called VHL E3 ubiquitin ligase complex
The experiment in a line: sucrose density gradient centrifugation of cell lysate, Western blot of fractions. How it is done:
as §1

For the next assay, the target named is Rbx1 (endogenous) (human, UniProt P62877 1-108). The experiment in a line: summary sentence citing FIG. 7 and FIG. 8b. The method, then:
as §1

In a further assay the target is Elongin C (endogenous) (human, UniProt Q15369 1-112). The assay is described as follows: summary sentence citing FIG. 7 and FIG. 8b. The method, then:
as §1

Sequence of Rbx1 (endogenous) (P62877 whole entry): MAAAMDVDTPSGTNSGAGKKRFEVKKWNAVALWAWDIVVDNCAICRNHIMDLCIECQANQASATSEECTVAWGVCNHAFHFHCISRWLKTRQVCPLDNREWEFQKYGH
Sequence of Elongin C (endogenous) (Q15369 whole entry): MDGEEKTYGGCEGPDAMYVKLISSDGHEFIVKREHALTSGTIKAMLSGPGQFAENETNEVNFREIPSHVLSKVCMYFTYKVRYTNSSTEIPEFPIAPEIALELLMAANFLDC
T1 sequence (P40337 whole entry, chain 1 of 3): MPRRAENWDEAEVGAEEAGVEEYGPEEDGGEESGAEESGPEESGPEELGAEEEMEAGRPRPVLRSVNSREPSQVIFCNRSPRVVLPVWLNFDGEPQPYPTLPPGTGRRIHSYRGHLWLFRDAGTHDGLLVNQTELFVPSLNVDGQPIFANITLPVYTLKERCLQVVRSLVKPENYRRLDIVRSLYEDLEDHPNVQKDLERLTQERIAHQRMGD
T1 sequence (Q15369 whole entry, chain 3 of 3): as the sequence (Q15369 whole entry) above
T1 sequence (P62877 whole entry, chain 4 of 3): as the sequence (P62877 whole entry) above

B1: Elongin B (endogenous) (other, human, UniProt Q15370 1-118, looked up)
chain: MDVFLMIRRHKTTIFTDAKESSTVFELKRIVEGILKRPPDEQRLYKDDQLLDDGKTLGECGFTSQTARPQAPATVGLAFRADDTFEALCIEPFSSPPELPDVMKPQDSGSSANEQAVQ
Turning to B1, the binding result in assay [1] is “no binding”.
As to B2, the binding result (in assay [2]; in the assay with Rbx1 (endogenous); with Elongin C (endogenous)) was “no binding” throughout.

For the origin of these results see US20120107297A1 (KOREA RESEARCH INSTITUTE OF BIOSCIENCE AND BIOTECHNOLOGY, published 2012).
